Test results from article PMC9537594 (2022).

B1: GST-NUP153_(1306-1450)(LCR-FG-LCR) (domain or fragment)
chain: FGTGPSAPSASPAFGANQTPTFGQSQGASQPNPPGFGSISSSTALFPTGSQPAPPTFGTVSSSSQPPVFGQQPSQSAFGSGTTPNSSSAFQFGSSTTNFNFTNNSPSGVFTFGANSSTPAASAQPSGSGGFPFNQSPAAFTVGSN
B2: GST-CPSF6_(261-358)(LCR-FG-LCR) (domain or fragment)
chain: SDIIPTTENLYFQGAIAEIPIFGLKAGQTPPRPPLGPPGPPGPPGPPPPGQVLPPPLAGPPNRGDRPPPPVLFPGQPFGQPPLGPLPPGPPPPVPGYGPPPGPPPPQQGPPPPPG
B3: GST-SEC24C_(196-314)(LCR-FG-LCR) (domain or fragment)
chain: HPGIQTPQRSAPSQASSFTPPASGGPRLPSMTGPLLPGQSFGGPSVSQPNHVSSPPQALPPGTQMTGPLGPLPPMHSPQQPGYQPQQNGSFGPARGPQSNYGGPYPAAPTFGSQPGPPQ

Each binder was assayed against Native HIV-1 cores (mature CA lattice of hexamers and pentamers) (HIV-1).
In the case of B1, the Kd is reported as 310 nM. B2 was tested, and the Kd was 890 nM. Binder B3 has a Kd of 810 nM.
